The text below walks through data of publication PMC11772548, “A Complex Interplay Between Melatonin and RORβ: RORβ is Unlikely a Putative Receptor for Melatonin as Revealed by Biophysical Assays” (Molecular Neurobiology, 2024).

In this experiment the target is ligand-binding domain (LBD) of human RORβ (human, UniProt Q92753-2 250-450, Paper numbering follows the 459-aa isoform (RORβ1; Thr210, Cys262, LBD ending at the AF-2 end, 450), so +11 gives the 470-aa entry: printed 250-450 = 261-461. The paper's modelled LBD is 210-450 (= 22). The experiment can be described thus: ITC; 2 mM SRC-1 peptide titrated into 50-100 µM LBD of RORβ; 20 mM Tris-HCl pH 8.6, 2 mM CHAPS, 100 mM NaCl, 5 mM DTT; Malvern MicroCal PEAQ-ITC. The settings on record: both partners purified. (In ITC the heat of successive injections is recorded.)
ligand-binding domain (LBD) of human RORβ, sequence (Q92753 250-450): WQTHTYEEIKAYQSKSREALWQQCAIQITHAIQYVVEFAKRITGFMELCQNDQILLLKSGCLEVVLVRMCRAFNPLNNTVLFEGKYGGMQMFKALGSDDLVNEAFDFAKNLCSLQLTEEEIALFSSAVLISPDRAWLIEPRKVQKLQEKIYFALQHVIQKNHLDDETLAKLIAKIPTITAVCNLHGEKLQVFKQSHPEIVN

B1: SRC-1 co-activator peptide (peptide)
peptide: RHKILHRLLQEGSPS
notes: also called SRC-1 peptide; source: synthetic peptide (GenScript)
In turn, B1 registered an equilibrium dissociation constant (Kd) of 19.8 µM and a dH of -1.1 kcal/mol.

The term Kd denotes the constant that tells how readily two partners part at equilibrium.
